According to patent publication US20250382580A1, “COMPOSITIONS AND METHODS FOR ACCELERATED PRODUCTION OF THYMIC CELLS FROM PLURIPOTENT STEM CELLS” (The Regents of the University of Colorado, a body Corporate, priority 2022, published 2025):

B1: CD40L: CD40 pathway activator, ETP-derived signal (protein, UniProt P29965 113-261, looked up)
CD40 ligand, soluble form: MQKGDQNPQIAAHVISEASSKTTSVLQWAEKGYYTMSNNLVTLENGKQLTVKRQGLYYIYAQVTFCSNREASSQAPFIASLCLKSPGRFERILLRAANTHSSAKPCGQQSIHLGGVFELQPGASVFVNVTDPSQVSHGTGFTSFGLLKL
B2: RANKL: RANK pathway activator, ETP-derived signal (protein, UniProt O14788 140-317, looked up)
Tumor necrosis factor ligand …: IRAEKAMVDGSWLDLAKRSKLEAQPFAHLTINATDIPSGSHKVSLSSWYHDRGWAKISNMTFSNGKLIVNQDGFYYLYANICFRHHETSGDLATEYLQLMVYVTKTSIKIPSSHTLMKGGSTKYWSGNSEFHFYSINVGGFFKLRSGEEISIEVSNPSLLDPDQDATYFGAFKVRDID

Assays:
iPSCs = experiment: Influence of TGF-β signaling on TEP induction from iPSCs, flow cytometry and qPCR on day 14 (Example 2); format: cell-based; details: TGF-β signaling modulation during AFE stage (days 5-6) and VPE stage (days 7-8); flow cytometry and qPCR day 14
Method: In another exemplary method, the influence of TGF-β signaling during generation of TEPs in two different stages was assessed. FIG. 4A is a schematic illustrating the timelines and culture conditions for the nine protocols performed in the present exemplary method. FIG. 2 provides a chart of agents, modulators, additives, and base mediums used in this and other exemplary methods herein.
For all nine exemplary experimental conditions, on Day 1, iPSCs were plated for differentiation in mTeSR+ supplemented with ROCKi according to the method disclosed above. […]
The 9 protocols testing the effect of TGF-β inhibition (Ly), omission, or activation (T) on TEP induction were tested and analyzed by flow cytometry and qPCR on day 14. FIG. 4B illustrates flow plot quantification of CD205^+EPCAM^+ cells from each differentiation protocol and FIGS. 4C-4E illustrate a qPCR analysis of HOXA3, KRT8, and FOXN1 gene expression in the cells from each differentiation protocol.
During the AFE stage (days 5-6) the influence of: 1) inhibition of TGF-β signaling (Ly—conditions […], 2, and 3); 2) no modulation of TGF-β signaling (conditions 4, 5, and 6); and 3) activation of TGF-β signaling (T—conditions 7, 8, and 9) was assessed. […]

iPSC-derived TEP = experiment: RANKL, CD40L and NOTCH agonists added in stage 4 or 5 of differentiation, flow cytometry and qPCR (Example 5); format: cell-based
Excerpt: FIG. 7 illustrates an exemplary experimental set-up in accordance with certain embodiments of the present disclosure. This experimental set-up for production of add RANKL, CD40L, and NOTCH agonists in different combinations in stage 4 or 5 of differentiation of the progenitor cells.
FIGS. 8A-8B illustrate additional stimulants used to enhance thymic cell production having improved marker representation, 8A and […] illustrate percent representative marker outcome under the varying conditions in accordance with certain embodiments of the present disclosure.
FIGS. 9A-9B illustrate exemplary results from qPCR detection of representative markers FOXN1 and MHC-II (e.g., HLA-DR) protein expression corroborated by gene expression under control and experimental conditions in accordance with certain embodiments of the present disclosure.

| Molecule | expression of TEP/TEC markers CD205 and EPCAM, VPE marker HOXA3, TEP markers KRT8 and FOXN1 (iPSCs) | production of FOXN1+EPCAM+ cells (iPSC-derived TEP) |
| --- | --- | --- |
| T: TGF-β activation (T), 1 ng/mL TGF-β | no influence | – |
| B1 | – | did not enhance production |
| B2 | – | did not enhance production |
